5 molecules from patent US20180155407A1 (Sanofi, published 2018) can be followed below.

Numbered stars: 1 amine (or outer) side, 2 acyl side, 3 side chain; on linkers, the order of the positions; unused ones are H or OH. Square brackets hold non-standard residues; d marks the D form. Side chains are listed from the residue outwards. Ends that are not written are not given here. * marks the point of attachment. γGlu = O=C(O)[C@H](CCC(=O)[*:2])N[*:1]; Palmitoyl = CCCCCCCCCCCCCCCC(=O)*; Aib = CC(C)(N)C(=O)O

Sequences and labels used below:
B1: SEQ ID NO: 8 (peptide)
peptide: H[Aib]QGTFTSDLSKLK([γGlu-γGlu-Palmitoyl])EEQRQ[Aib]EFIEWLKAGGHPS[Aib]KPPPK-NH2
modifications: N-terminus assumed
SMILES: CCCCCCCCCCCCCCCC(=O)N[C@@H](CCC(=O)N[C@@H](CCC(=O)NCCCC[C@H](NC(=O)[C@H](CC(C)C)NC(=O)[C@H](CCCCN)NC(=O)[C@H](CO)NC(=O)[C@H](CC(C)C)NC(=O)[C@H](CC(=O)O)NC(=O)[C@H](CO)NC(=O)[C@@H](NC(=O)[C@H](Cc1ccccc1)NC(=O)[C@@H](NC(=O)CNC(=O)[C@H](CCC(N)=O)NC(=O)C(C)(C)NC(=O)[C@@H](N)Cc1c[nH]cn1)[C@@H](C)O)[C@@H](C)O)C(=O)N[C@@H](CCC(=O)O)C(=O)N[C@@H](CCC(=O)O)C(=O)N[C@@H](CCC(N)=O)C(=O)N[C@@H](CCCNC(=N)N)C(=O)N[C@@H](CCC(N)=O)C(=O)NC(C)(C)C(=O)N[C@@H](CCC(=O)O)C(=O)N[C@@H](Cc1ccccc1)C(=O)N[C@H](C(=O)N[C@@H](CCC(=O)O)C(=O)N[C@@H](Cc1c[nH]c2ccccc12)C(=O)N[C@@H](CC(C)C)C(=O)N[C@@H](CCCCN)C(=O)N[C@@H](C)C(=O)NCC(=O)NCC(=O)N[C@@H](Cc1c[nH]cn1)C(=O)N1CCC[C@H]1C(=O)N[C@@H](CO)C(=O)NC(C)(C)C(=O)N[C@@H](CCCCN)C(=O)N1CCC[C@H]1C(=O)N1CCC[C@H]1C(=O)N1CCC[C@H]1C(=O)N[C@@H](CCCCN)C(N)=O)[C@@H](C)CC)C(=O)O)C(=O)O
B2: SEQ ID NO: 10 (peptide)
peptide: H[Aib]QGTFTSDLSKLK([γGlu-γGlu-Palmitoyl])EEQRQ[Aib]EFIEWLKA[dA]GPPS[Aib]KPPPK-NH2
modifications: N-terminus assumed
SMILES: CCCCCCCCCCCCCCCC(=O)N[C@@H](CCC(=O)N[C@@H](CCC(=O)NCCCC[C@H](NC(=O)[C@H](CC(C)C)NC(=O)[C@H](CCCCN)NC(=O)[C@H](CO)NC(=O)[C@H](CC(C)C)NC(=O)[C@H](CC(=O)O)NC(=O)[C@H](CO)NC(=O)[C@@H](NC(=O)[C@H](Cc1ccccc1)NC(=O)[C@@H](NC(=O)CNC(=O)[C@H](CCC(N)=O)NC(=O)C(C)(C)NC(=O)[C@@H](N)Cc1c[nH]cn1)[C@@H](C)O)[C@@H](C)O)C(=O)N[C@@H](CCC(=O)O)C(=O)N[C@@H](CCC(=O)O)C(=O)N[C@@H](CCC(N)=O)C(=O)N[C@@H](CCCNC(=N)N)C(=O)N[C@@H](CCC(N)=O)C(=O)NC(C)(C)C(=O)N[C@@H](CCC(=O)O)C(=O)N[C@@H](Cc1ccccc1)C(=O)N[C@H](C(=O)N[C@@H](CCC(=O)O)C(=O)N[C@@H](Cc1c[nH]c2ccccc12)C(=O)N[C@@H](CC(C)C)C(=O)N[C@@H](CCCCN)C(=O)N[C@@H](C)C(=O)N[C@H](C)C(=O)NCC(=O)N1CCC[C@H]1C(=O)N1CCC[C@H]1C(=O)N[C@@H](CO)C(=O)NC(C)(C)C(=O)N[C@@H](CCCCN)C(=O)N1CCC[C@H]1C(=O)N1CCC[C@H]1C(=O)N1CCC[C@H]1C(=O)N[C@@H](CCCCN)C(N)=O)[C@@H](C)CC)C(=O)O)C(=O)O
B3: SEQ ID NO: 12 (peptide)
peptide: H[Aib]QGTFTSDLSKLK([γGlu-γGlu-Palmitoyl])EKQRQ[Aib]EFIEWLKAGGHPS[Aib]KPPPK-NH2
modifications: N-terminus assumed
SMILES: CCCCCCCCCCCCCCCC(=O)N[C@@H](CCC(=O)N[C@@H](CCC(=O)NCCCC[C@H](NC(=O)[C@H](CC(C)C)NC(=O)[C@H](CCCCN)NC(=O)[C@H](CO)NC(=O)[C@H](CC(C)C)NC(=O)[C@H](CC(=O)O)NC(=O)[C@H](CO)NC(=O)[C@@H](NC(=O)[C@H](Cc1ccccc1)NC(=O)[C@@H](NC(=O)CNC(=O)[C@H](CCC(N)=O)NC(=O)C(C)(C)NC(=O)[C@@H](N)Cc1c[nH]cn1)[C@@H](C)O)[C@@H](C)O)C(=O)N[C@@H](CCC(=O)O)C(=O)N[C@@H](CCCCN)C(=O)N[C@@H](CCC(N)=O)C(=O)N[C@@H](CCCNC(=N)N)C(=O)N[C@@H](CCC(N)=O)C(=O)NC(C)(C)C(=O)N[C@@H](CCC(=O)O)C(=O)N[C@@H](Cc1ccccc1)C(=O)N[C@H](C(=O)N[C@@H](CCC(=O)O)C(=O)N[C@@H](Cc1c[nH]c2ccccc12)C(=O)N[C@@H](CC(C)C)C(=O)N[C@@H](CCCCN)C(=O)N[C@@H](C)C(=O)NCC(=O)NCC(=O)N[C@@H](Cc1c[nH]cn1)C(=O)N1CCC[C@H]1C(=O)N[C@@H](CO)C(=O)NC(C)(C)C(=O)N[C@@H](CCCCN)C(=O)N1CCC[C@H]1C(=O)N1CCC[C@H]1C(=O)N1CCC[C@H]1C(=O)N[C@@H](CCCCN)C(N)=O)[C@@H](C)CC)C(=O)O)C(=O)O
B4: SEQ ID NO: 11 (peptide)
peptide: H[Aib]QGTFTSDLSKLK([γGlu-γGlu-Palmitoyl])EEQRQ[Aib]EFIEWLKA[dA]GHPS[Aib]KPPPK-NH2
modifications: N-terminus assumed
SMILES: CCCCCCCCCCCCCCCC(=O)N[C@@H](CCC(=O)N[C@@H](CCC(=O)NCCCC[C@H](NC(=O)[C@H](CC(C)C)NC(=O)[C@H](CCCCN)NC(=O)[C@H](CO)NC(=O)[C@H](CC(C)C)NC(=O)[C@H](CC(=O)O)NC(=O)[C@H](CO)NC(=O)[C@@H](NC(=O)[C@H](Cc1ccccc1)NC(=O)[C@@H](NC(=O)CNC(=O)[C@H](CCC(N)=O)NC(=O)C(C)(C)NC(=O)[C@@H](N)Cc1c[nH]cn1)[C@@H](C)O)[C@@H](C)O)C(=O)N[C@@H](CCC(=O)O)C(=O)N[C@@H](CCC(=O)O)C(=O)N[C@@H](CCC(N)=O)C(=O)N[C@@H](CCCNC(=N)N)C(=O)N[C@@H](CCC(N)=O)C(=O)NC(C)(C)C(=O)N[C@@H](CCC(=O)O)C(=O)N[C@@H](Cc1ccccc1)C(=O)N[C@H](C(=O)N[C@@H](CCC(=O)O)C(=O)N[C@@H](Cc1c[nH]c2ccccc12)C(=O)N[C@@H](CC(C)C)C(=O)N[C@@H](CCCCN)C(=O)N[C@@H](C)C(=O)N[C@H](C)C(=O)NCC(=O)N[C@@H](Cc1c[nH]cn1)C(=O)N1CCC[C@H]1C(=O)N[C@@H](CO)C(=O)NC(C)(C)C(=O)N[C@@H](CCCCN)C(=O)N1CCC[C@H]1C(=O)N1CCC[C@H]1C(=O)N1CCC[C@H]1C(=O)N[C@@H](CCCCN)C(N)=O)[C@@H](C)CC)C(=O)O)C(=O)O
B5: SEQ ID NO: 9 (peptide)
peptide: H[Aib]QGTFTSDLSKLK([γGlu-γGlu-Palmitoyl])EEQRQ[Aib]EFIEWLKAGGPPS[Aib]KPPPK-NH2
modifications: N-terminus assumed
SMILES: CCCCCCCCCCCCCCCC(=O)N[C@@H](CCC(=O)N[C@@H](CCC(=O)NCCCC[C@H](NC(=O)[C@H](CC(C)C)NC(=O)[C@H](CCCCN)NC(=O)[C@H](CO)NC(=O)[C@H](CC(C)C)NC(=O)[C@H](CC(=O)O)NC(=O)[C@H](CO)NC(=O)[C@@H](NC(=O)[C@H](Cc1ccccc1)NC(=O)[C@@H](NC(=O)CNC(=O)[C@H](CCC(N)=O)NC(=O)C(C)(C)NC(=O)[C@@H](N)Cc1c[nH]cn1)[C@@H](C)O)[C@@H](C)O)C(=O)N[C@@H](CCC(=O)O)C(=O)N[C@@H](CCC(=O)O)C(=O)N[C@@H](CCC(N)=O)C(=O)N[C@@H](CCCNC(=N)N)C(=O)N[C@@H](CCC(N)=O)C(=O)NC(C)(C)C(=O)N[C@@H](CCC(=O)O)C(=O)N[C@@H](Cc1ccccc1)C(=O)N[C@H](C(=O)N[C@@H](CCC(=O)O)C(=O)N[C@@H](Cc1c[nH]c2ccccc12)C(=O)N[C@@H](CC(C)C)C(=O)N[C@@H](CCCCN)C(=O)N[C@@H](C)C(=O)NCC(=O)NCC(=O)N1CCC[C@H]1C(=O)N1CCC[C@H]1C(=O)N[C@@H](CO)C(=O)NC(C)(C)C(=O)N[C@@H](CCCCN)C(=O)N1CCC[C@H]1C(=O)N1CCC[C@H]1C(=O)N1CCC[C@H]1C(=O)N[C@@H](CCCCN)C(N)=O)[C@@H](C)CC)C(=O)O)C(=O)O

Chain of human glucagon receptor (P47871 26-477): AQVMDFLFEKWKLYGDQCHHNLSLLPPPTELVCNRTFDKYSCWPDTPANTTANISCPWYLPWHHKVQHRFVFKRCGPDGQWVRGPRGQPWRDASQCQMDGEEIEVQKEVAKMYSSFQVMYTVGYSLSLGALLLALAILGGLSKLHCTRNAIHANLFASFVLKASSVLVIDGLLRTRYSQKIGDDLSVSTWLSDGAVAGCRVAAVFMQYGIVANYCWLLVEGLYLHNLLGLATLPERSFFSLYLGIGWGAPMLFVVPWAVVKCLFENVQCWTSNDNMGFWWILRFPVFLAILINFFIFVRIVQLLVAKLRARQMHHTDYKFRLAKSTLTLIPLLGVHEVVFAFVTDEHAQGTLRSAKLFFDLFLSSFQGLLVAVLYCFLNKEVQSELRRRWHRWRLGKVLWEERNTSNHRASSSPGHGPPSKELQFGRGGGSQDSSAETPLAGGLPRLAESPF

The first test deals with human GLP-1 receptor (human, UniProt P43220 24-463). The test can be described thus: cell-based or functional assay.
B1: the “EC50 hGLP-1R (cAMP formation)” value turned out to be 2.2 pM.

For B2, the “EC50 hGLP-1R (cAMP formation)” value stood at 2.4 pM.

In the case of B3, the “EC50 hGLP-1R (cAMP formation)” value amounted to 2.7 pM.

In the case of B4, the “EC50 hGLP-1R (cAMP formation)” value amounted to 2.3 pM.

For the molecule B5, the “EC50 hGLP-1R (cAMP formation)” value came out at 2.6 pM.

The next test concerns the target human glucagon receptor (human, UniProt P47871 26-477). The test can be described thus: cell-based or functional assay.
In the case of B1, the “EC50 hGlucagon R (cAMP formation)” value amounted to 32.6 pM.

With B2, the “EC50 hGlucagon R (cAMP formation)” value was determined as 26.1 pM.

In the case of B3, the “EC50 hGlucagon R (cAMP formation)” value stood at 22 pM.

On to B4, for which the “EC50 hGlucagon R (cAMP formation)” value was determined as 22.4 pM.

Regarding B5, the “EC50 hGlucagon R (cAMP formation)” value stood at 24.7 pM.

A further test addresses T1, human GIP receptor (human, UniProt P48546 22-466).
T1 sequence (looked up): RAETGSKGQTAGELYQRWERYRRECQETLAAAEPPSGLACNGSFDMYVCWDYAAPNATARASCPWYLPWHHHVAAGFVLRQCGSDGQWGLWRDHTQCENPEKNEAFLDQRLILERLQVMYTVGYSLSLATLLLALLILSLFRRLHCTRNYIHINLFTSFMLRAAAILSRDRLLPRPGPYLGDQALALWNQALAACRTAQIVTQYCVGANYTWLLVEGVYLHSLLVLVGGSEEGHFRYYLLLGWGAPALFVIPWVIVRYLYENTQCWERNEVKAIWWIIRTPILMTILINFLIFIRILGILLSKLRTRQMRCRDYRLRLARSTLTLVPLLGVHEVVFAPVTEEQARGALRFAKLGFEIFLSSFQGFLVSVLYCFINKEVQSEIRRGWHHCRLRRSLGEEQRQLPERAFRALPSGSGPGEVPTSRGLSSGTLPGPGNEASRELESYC
The test can be described thus: cell-based or functional assay.
For B1, the “EC50 hGIP R (cAMP formation)” value turned out to be 5.6 pM.

As to B2, the “EC50 hGIP R (cAMP formation)” value is 5.4 pM.

B3: the “EC50 hGIP R (cAMP formation)” value turned out to be 15.8 pM.

Turning to B4, the “EC50 hGIP R (cAMP formation)” value was determined as 3.5 pM.

For the molecule B5, the “EC50 hGIP R (cAMP formation)” value worked out at 5.6 pM.
